Tests used:
[1] = biological target: T1, antigen (11A12) containing the ED-A domain of human fibronectin (human, UniProt P02751 1629-1905); assay: SPR (BIAcore), monomeric scFv over 11A12 immobilised on CM5 chip
T1 construct: Immobilised on a CM5 chip by amine coupling
Protocol: The kₒₙ, koff and KD of the parent anti-ED-A antibody and anti-ED-A antibodies B2, C5, D5, C8, F8, B7 and G9 were evaluated using Surface Plasmon Resonance. The chip was equilibrated over night with the same buffer used during the assay at a buffer flow rate of 5 μl/min. The whole coating procedure was performed at this flow rate. The antigen 11A12 was diluted 1:25 with acetate buffer pH 4.00 (provided by BIACORE) to a final concentration of 20 μg/ml. The NHS and EDC were then mixed and 50 μl injected to activate the COOH groups on the CM5 chip. This was followed by injection of 40 μl of the antigen (this lasts about 40″). Then 30 μl of Ethanolammine were injected in order to block the reactivity of eventual free COOH.
Each sample was assayed at a flow rate 20 μl/min. 20 μl of undiluted monomeric protein (as it comes out from the gel filtration) was injected. The dissociation time was left to run for about 200″. Then 10 μl of HCl 10 mM was injected to regenerate the chip. The injection of monomeric protein was repeated at different dilutions, i.e. 1:2 dilution (in PBS) followed by regeneration with HCl. This was followed by a third injection of the protein, at a dilution of 1:4 followed again by regeneration with HCl. The kₒₙ, koff and KD values for each anti-ED-A antibody were evaluated using the BIAevaluation software.

[2] = biological target: T1, antigen (11A12) containing the ED-A …; assay: SPR (BIAcore analysis 1), bacterial supernatant of scFv over immobilised 11A12; flatter dissociation curve than the parent
Protocol: The BIAcore Chip was flushed overnight at a flow rate of 5 μl/min with HBS-EP buffer BIACORE, 0.01 M Hepes pH 7.4, 0.15 M NaCl, 3 mM EDTA, 0.005% surfactant P20 (same buffer used for the assay). The antigen (11A12) was diluted to a concentration of 50 μg/ml in acetate buffer (pH 4.0) and the COOH groups on the chip were activated by injection of 50 μl of a mix of N-Hydroxy Succinimmide (NHS) and ethyl-N-(dimethylaminopropyl)-carbodiimide (EDC). 40 μl of the 11A12 antigen were injected onto the chip and the residual free COOH groups were blocked with 30 μl of ethanolamine. After a 0.22 μm filtration, 20 μl of each individual bacterial supernatant were injected onto the chip and interaction with the antigen was monitored in real time.
The association curves of antibodies H1, C5, D5, E5, C8, F8 and F1 were flatter than that observed for the parent anti-ED-A antibody while the association curve observed for antibodies B2, B7, E8 and G9 was as steep as the association curve observed for the parent anti-ED-A antibody. However, as bacterial supernatants of IFTG-induced E. coli TG-1 cells were used for the BIAcore analysis of antibodies H1, B2, C5, D5, E5, C8, F8, F1, B7, E8 and G9, the concentration of the tested antibody samples was unknown but most probably lower than the concentration of the parent anti-ED-A antibody sample used for comparison. Consequently, the association curve of antibodies H1, B2, C5, D5, E5, C8, F8, F1, B7, E8 and G9 may be artificially low due to the low concentration of antibody in the samples used for the BIAcore analysis.

T1 sequence (P02751 other isoform, or with tags, fused parts or gaps limits assumed): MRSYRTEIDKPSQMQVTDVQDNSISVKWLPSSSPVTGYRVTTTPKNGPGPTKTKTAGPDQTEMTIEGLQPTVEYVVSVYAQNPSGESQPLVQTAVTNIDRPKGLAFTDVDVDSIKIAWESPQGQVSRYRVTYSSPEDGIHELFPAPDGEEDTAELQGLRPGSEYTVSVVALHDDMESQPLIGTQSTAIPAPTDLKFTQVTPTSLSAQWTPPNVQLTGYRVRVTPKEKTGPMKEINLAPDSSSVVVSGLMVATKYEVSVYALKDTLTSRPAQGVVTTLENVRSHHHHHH

| Kd [1] [nM] | koff [1] [s⁻¹] | kon [1] [M⁻¹ s⁻¹] | binding result [2] | Binder |
| --- | --- | --- | --- | --- |
| ~16.8 | 0.0045 | 267000 | – | anti-ED-A antibody B7 (scFv, scFv; Supernatant in BIAcore analysis 1, purified monomeric fraction in BIAcore analysis 2) scFv: EVQLVESGGGLVQPGGSLRLSCAASGFTFSHFDMSWVRQAPGKGLEWVSAISGSGGSTYYADSVKGRFTISRDNSKNTLYLQMNSLRAEDTAVYYCAKSTHLYLFDYWGQGTLVTVSSGGGGSGGGGSGGGGSGGGGSEIVLTQSPGTLSLSPGEKATLSCRASQSVSLAFLAWYQQKPGQAPRLLIYGASSRATGIPDRFSGSGSGTDFTLTISRLEPEDFAVYYCQQMRGRPPTFGQGTKVEIKAAAEQKLISEEDLNGAA |
| ~20.9 | 0.00754 | 360000 | – | anti-ED-A antibody G9 (scFv, scFv; Supernatant in BIAcore analysis 1, purified monomeric fraction in BIAcore analysis 2) scFv: EVQLVESGGGLVQPGGSLRLSCAASGFTFSHMQMSWVRQAPGKGLEWVSAISGSGGSTYYADSVKGRFTISRDNSKNTLYLQMNSLRAEDTAVYYCAKSTHLYLFDYWGQGTLVTVSSGGGGSGGGGSGGGGSGGGGSEIVLTQSPGTLSLSPGEKATLSCRASQSVSTAFLAWYQQKPGQAPRLLIYGASSRATGIPDRFSGSGSGTDFTLTISRLEPEDFAVYYCQQMRGRPPTFGQGTKVEIKAAAEQKLISEEDLNGAA |
| – | – | – | binds | anti-ED-A antibody E8 (scFv, scFv, tested as bacterial supernatant in BIAcore analysis 1) scFv: EVQLVESGGGLVQPGGSLRLSCAASGFTFSDMHMSWVRQAPGKGLEWVSAISGSGGSTYYADSVKGRFTISRDNSKNTLYLQMNSLRAEDTAVYYCAKSTHLYLFDYWGQGTLVTVSSGGGGSGGGGSGGGGSGGGGSEIVLTQSPGTLSLSPGEKATLSCRASQSVSSSFLAWYQQKPGQAPRLLIYGASSRATGIPDRFSGSGSGTDFTLTISRLEPEDFAVYYCQQMRGRPPTFGQGTKVEIKAAAEQKLISEEDLNGAA |
| ~30 | 0.00923 | 304000 | – | anti-ED-A antibody C5 (scFv, scFv; Supernatant in BIAcore analysis 1, purified monomeric fraction in BIAcore analysis 2) scFv: EVQLVESGGGLVQPGGSLRLSCAASGFTFSPITMSWVRQAPGKGLEWVSAISGSGGSTYYADSVKGRFTISRDNSKNTLYLQMNSLRAEDTAVYYCAKSTHLYLFDYWGQGTLVTVSSGGGGSGGGGSGGGGSGGGGSEIVLTQSPGTLSLSPGEKATLSCRASQSVSLHFLAWYQQKPGQAPRLLIYGASSRATGIPDRFSGSGSGTDFTLTISRLEPEDFAVYYCQQMRGRPPTFGQGTKVEIKAAAEQKLISEEDLNGAA |
| ~3.1 | 0.0014 | 465000 | – | anti-ED-A antibody F8 (scFv, scFv format, not the F8 diabody; Supernatant in BIAcore analysis 1, purified monomeric fraction in BIAcore analysis 2; also called anti-ED-A scFv F8) scFv: EVQLVESGGGLVQPGGSLRLSCAASGFTFSLFTMSWVRQAPGKGLEWVSAISGSGGSTYYADSVKGRFTISRDNSKNTLYLQMNSLRAEDTAVYYCAKSTHLYLFDYWGQGTLVTVSSGGGGSGGGGSGGGGSGGGGSEIVLTQSPGTLSLSPGEKATLSCRASQSVSMPFLAWYQQKPGQAPRLLIYGASSRATGIPDRFSGSGSGTDFTLTISRLEPEDFAVYYCQQMRGRPPTFGQGTKVEIKAAAEQKLISEEDLNGAA |
| – | – | – | binds | anti-ED-A antibody H1 (scFv, scFv, tested as bacterial supernatant in BIAcore analysis 1; Tags from the pHEN1 vector are not described) scFv: EVQLVESGGGLVQPGGSLRLSCAASGFTFSPRRMSWVRQAPGKGLEWVSAISGSGGSTYYADSVKGRFTISRDNSKNTLYLQMNSLRAEDTAVYYCAKSTHLYLFDYWGQGTLVTVSSGGGGSGGGGSGGGGSGGGGSEIVLTQSPGTLSLSPGEKATLSCRASQSVSSAWLAWYQQKPGQAPRLLIYGASSRATGIPDRFSGSGSGTDFTLTISRLEPEDFAVYYCQQMRGRPPTFGQGTKVEIKAAAEQKLISEEDLNGAA |
| – | – | – | binds | anti-ED-A antibody E5 (scFv, scFv, tested as bacterial supernatant in BIAcore analysis 1) scFv: EVQLVESGGGLVQPGGSLRLSCAASGFTFSTGSMSWVRQAPGKGLEWVSAISGSGGSTYYADSVKGRFTISRDNSKNTLYLQMNSLRAEDTAVYYCAKSTHLYLFDYWGQGTLVTVSSGGGGSGGGGSGGGGSGGGGSEIVLTQSPGTLSLSPGEKATLSCRASQSVSLAHLAWYQQKPGQAPRLLIYGASSRATGIPDRFSGSGSGTDFTLTISRLEPEDFAVYYCQQMRGRPPTFGQGTKVEIKAAAEQKLISEEDLNGAA |
| – | – | – | binds | anti-ED-A antibody F1 (scFv, scFv, tested as bacterial supernatant (E. coli TG-1) in BIAcore analysis 1) scFv: EVQLVESGGGLVQPGGSLRLSCAASGFTFSQARMSWVRQAPGKGLEWVSAISGSGGSTYYADSVKGRFTISRDNSKNTLYLQMNSLRAEDTAVYYCAKSTHLYLFDYWGQGTLVTVSSGGGGSGGGGSGGGGSGGGGSEIVLTQSPGTLSLSPGEKATLSCRASQSVSAPFLAWYQQKPGQAPRLLIYGASSRATGIPDRFSGSGSGTDFTLTISRLEPEDFAVYYCQQMRGRPPTFGQGTKVEIKAAAEQKLISEEDLNGAA |
| ~14 | 0.0053 | 380000 | – | anti-ED-A antibody C8 (scFv, scFv; Supernatant in BIAcore analysis 1, purified monomeric fraction in BIAcore analysis 2) scFv: EVQLVESGGGLVQPGGSLRLSCAASGFTFSLQTMSWVRQAPGKGLEWVSAISGSGGSTYYADSVKGRFTISRDNSKNTLYLQMNSLRAEDTAVYYCAKSTHLYLFDYWGQGTLVTVSSGGGGSGGGGSGGGGSGGGGSEIVLTQSPGTLSLSPGEKATLSCRASQSVSLPFLAWYQQKPGQAPRLLIYGASSRATGIPDRFSGSGSGTDFTLTISRLEPEDFAVYYCQQMRGRPPTFGQGTKVEIKAAAEQKLISEEDLNGAA |
| ~20 | 0.00754 | 380000 | – | anti-ED-A antibody B2 (scFv, scFv; Supernatant in BIAcore analysis 1, purified monomeric fraction in BIAcore analysis 2) scFv: EVQLVESGGGLVQPGGSLRLSCAASGFTFSAAKMSWVRQAPGKGLEWVSAISGSGGSTYYADSVKGRFTISRDNSKNTLYLQMNSLRAEDTAVYYCAKSTHLYLFDYWGQGTLVTVSSGGGGSGGGGSGGGGSGGGGSEIVLTQSPGTLSLSPGEKATLSCRASQSVSVAFLAWYQQKPGQAPRLLIYGASSRATGIPDRFSGSGSGTDFTLTISRLEPEDFAVYYCQQMRGRPPTFGQGTKVEIKAAAEQKLISEEDLNGAA |
| ~17 | 0.0076 | 453000 | – | anti-ED-A antibody D5 (scFv, scFv; Supernatant in BIAcore analysis 1, purified monomeric fraction in BIAcore analysis 2) scFv: EVQLVESGGGLVQPGGSLRLSCAASGFTFSVMKMSWVRQAPGKGLEWVSAISGSGGSTYYADSVKGRFTISRDNSKNTLYLQMNSLRAEDTAVYYCAKSTHLYLFDYWGQGTLVTVSSGGGGSGGGGSGGGGSGGGGSEIVLTQSPGTLSLSPGEKATLSCRASQSVSNAFLAWYQQKPGQAPRLLIYGASSRATGIPDRFSGSGSGTDFTLTISRLEPEDFAVYYCQQMRGRPPTFGQGTKVEIKAAAEQKLISEEDLNGAA |
